Molecular target: T1, Xenopus Smurf1 (Xenopus, UniProt Q9PUN2 1-731)
T1 construct: Used as a yeast two-hybrid fusion and as in vitro translated 35S-Met-labelled protein; also called Xsmurf; 35S-labelled Smurf1
Assay: in vitro co-immunoprecipitation: 35S-Smurf1 on FLAG-Smad bound to anti-FLAG beads
Protocol: (A) Smurf1 interacts with Smad1. Yeast two-hybrid assays were done on yeast co-transformed with combinations of Xenopus Smurf1 (Xsmurf) together with Smad1, Smad2, lamin or vector alone. […] Co-immunoprecipitation on in vitro translated proteins was done by incubating 35S-labelled Smurf1 together with in vitro translated, 35S-Met trace-labelled Flag-tagged Smad1 (35S-F/Smad1), Smad2 (35S-F/Smad2) or Smad4 (35S-F/Smad4) immobilized on anti-Flag affinity gel matrices. After washing, bound proteins were eluted and analyzed by SDS-PAGE (right panel).

T1 sequence (Q9PUN2 whole entry, the tested form may be a part): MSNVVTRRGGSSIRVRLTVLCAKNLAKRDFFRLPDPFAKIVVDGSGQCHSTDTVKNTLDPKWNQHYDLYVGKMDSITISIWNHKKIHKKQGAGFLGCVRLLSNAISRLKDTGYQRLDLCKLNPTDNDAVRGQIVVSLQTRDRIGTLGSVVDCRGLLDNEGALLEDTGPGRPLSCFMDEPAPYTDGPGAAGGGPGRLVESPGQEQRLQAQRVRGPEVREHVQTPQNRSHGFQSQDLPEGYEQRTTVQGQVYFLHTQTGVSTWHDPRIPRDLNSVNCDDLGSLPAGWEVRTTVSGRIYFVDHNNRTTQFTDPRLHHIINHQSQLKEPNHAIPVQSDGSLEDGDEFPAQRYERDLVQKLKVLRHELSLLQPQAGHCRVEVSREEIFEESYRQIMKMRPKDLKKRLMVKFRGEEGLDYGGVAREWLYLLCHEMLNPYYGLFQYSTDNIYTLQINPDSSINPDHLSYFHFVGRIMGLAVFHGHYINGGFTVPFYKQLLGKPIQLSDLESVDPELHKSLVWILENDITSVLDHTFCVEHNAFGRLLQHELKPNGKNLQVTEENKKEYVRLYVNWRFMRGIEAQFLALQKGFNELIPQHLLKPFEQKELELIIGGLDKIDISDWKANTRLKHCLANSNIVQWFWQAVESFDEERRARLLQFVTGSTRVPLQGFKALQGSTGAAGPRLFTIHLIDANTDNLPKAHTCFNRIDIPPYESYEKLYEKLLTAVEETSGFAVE

Row | Binder | binding result
1 | human Smad2, FLAG-tagged at the C-terminus, in vitro translated (other, UniProt Q15796 1-467, looked up, also called 35S-F/Smad2; not shown: C-terminal FLAG tag) MSSILPFTPPVVKRLLGWKKSAGGSGGAGGGEQNGQEEKWCEKAVKSLVKKLKKTGRLDELEKAITTQNCNTKCVTIPSTCSEIWGLSTPNTIDQWDTTGLYSFSEQTRSLDGRLQVSHRKGLPHVIYCRLWRWPDLHSHHELKAIENCEYAFNLKKDEVCVNPYHYQRVETPVLPPVLVPRHTEILTELPPLDDYTHSIPENTNFPAGIEPQSNYIPETPPPGYISEDGETSDQQLNQSMDTGSPAELSPTTLSPVNHSLDLQPVTYSEPAFWCSIAYYELNQRVGETFHASQPSLTVDGFTDPSNSERFCLGLLSNVNRNATVEMTRRHIGRGVRLYYIGGEVFAECLSDSAIFVQSPNCNQRYGWHPATVCKIPPGCNLKIFNNQEFAALLAQSVNQGFEAVYQLTRMCTIRMSFVKGWGAEYRRQTVTSTPCWIELHLNGPLQWLDKVLTQMGSPSVRCSSMS | no binding
2 | mouse Smad4, FLAG-tagged at the C-terminus, in vitro translated (other, UniProt P97471 1-551, looked up, also called 35S-F/Smad4; not shown: C-terminal FLAG tag) MDNMSITNTPTSNDACLSIVHSLMCHRQGGESETFAKRAIESLVKKLKEKKDELDSLITAITTNGAHPSKCVTIQRTLDGRLQVAGRKGFPHVIYARLWRWPDLHKNELKHVKYCQYAFDLKCDSVCVNPYHYERVVSPGIDLSGLTLQSNAPSMLVKDEYVHDFEGQPSLPTEGHSIQTIQHPPSNRASTETYSAPALLAPAESNATSTTNFPNIPVASTSQPASILAGSHSEGLLQIASGPQPGQQQNGFTAQPATYHHNSTTTWTGSRTAPYTPNLPHHQNGHLQHHPPMPPHPGHYWPVHNELAFQPPISNHPAPEYWCSIAYFEMDVQVGETFKVPSSCPVVTVDGYVDPSGGDRFCLGQLSNVHRTEAIERARLHIGKGVQLECKGEGDVWVRCLSDHAVFVQSYYLDREAGRAPGDAVHKIYPSAYIKVFDLRQCHRQMQQQAATAQAAAAAQAAAVAGNIPGPGSVGGIAPAISLSAAAGIGVDDLRRLCILRMSFVKGWGPDYPRQSIKETPCWIEIHLHRALQLLDEVLHTMPIADPQPLD | no binding
